{"source": "paper PMC12820725", "about": "“Ribosomal protein control of hematopoietic stem cell transformation through regulation of metabolism”", "binders": {"B1": {"name": "EBER1 (structured_RNA)", "RNA": "GGUCCGUCCCGGGUACAAGUCCCGGGUGGUGA"}, "B2": {"name": "Alox12 NBS (ssRNA)", "RNA": "ACCAGAGUGAUGAUAUUGUGAGGGGAGACCCA"}, "B3": {"name": "EBER2 (ssRNA)", "RNA": "GCUCAGUGCGGUGCUACCGACCCGAGGUCAAG"}, "B4": {"name": "Alox12 BS2 (structured_RNA)", "RNA": "AUUUCCUCACCAUGUGUGUUUUCACAUGCACU"}, "B5": {"name": "Alox12 BS1 (structured_RNA)", "RNA": "AUCCUGCUGGAUGGAAUUCCAGCUAAUGUGAU"}}, "key": {"GST-Rpl22 [1]": {"molecular_target": "GST-Rpl22 (UniProt P67984 1-128)", "test": "EMSA; 5 mM MgCl2, E. coli tRNA competitor; 37.5 mM HEPES pH 7.9, 75 mM NaCl, 5 mM MgCl2, 0.1 mg/ml BSA, 8% glycerol, 1 ug E. coli tRNA, 5 nM 32P-RNA; temperature not stated", "conditions": "protein: recombinant; tags: GST; label: 5'-32P"}, "GST-Rpl22 [2]": {"molecular_target": "GST-Rpl22 (UniProt P67984 1-128)", "test": "EMSA; 5 mM MgCl2, E. coli tRNA competitor; 37.5 mM HEPES pH 7.9, 75 mM NaCl, 5 mM MgCl2, 0.1 mg/ml BSA, 8% glycerol, 1 ug E. coli tRNA, 5 nM 32P-RNA; temperature not stated"}}, "note": "Read-outs that look alike come from different tables or passages of the source.", "data": [{"binder": "B1", "values": [{"measurement": "binding result", "setting": "GST-Rpl22 [1]", "value": "binds"}]}, {"binder": "B2", "values": [{"measurement": "binding result", "setting": "GST-Rpl22 [2]", "value": "no binding"}]}, {"binder": "B3", "values": [{"measurement": "binding result", "setting": "GST-Rpl22 [1]", "value": "no binding"}]}, {"binder": "B4", "values": [{"measurement": "binding result", "setting": "GST-Rpl22 [2]", "value": "binds"}]}, {"binder": "B5", "values": [{"measurement": "binding result", "setting": "GST-Rpl22 [2]", "value": "no binding"}]}]}
